Literature values as cited in article PMC4072998.

Columns and labels:
Glu14 [1] = biological target: T1, Glu14 (UniProt position 14, GAILAEVIGTT); test: kinetics; conditions: pre-equilibrium; free protein binding substrate
Glu14 [2] = biological target: T1, Glu14; test: other
Asp14 = Asp14 (UniProt position 14, GAILADVIGTT); test: kinetics; conditions: pre-equilibrium; free protein binding substrate

## EmrE (small multidrug resistance transporter) (Escherichia coli)
Glu14 [1]
  pKa: ~7.3
Glu14 [2]; equilibrium, substrate-induced deprotonation
  pKa: 8.3-8.5
Glu14 [2]; substrate-free protein competing for H+ versus TPP+
  pKa: 7-8

## EmrE E14D mutant (Escherichia coli; E14D)
Asp14
  pKa: 5.8
